Results published in the nanobody polyreactivity screen of Harvey et al. (2022).

Test: yeast display, Sf9 membrane polyspecificity reagent, FACS + sequencing; frameworks hold sequencing errors
How it was run: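 A nanobody's polyreactivity label depends on the gate it was sorted from. Yeast display cells were stained with 10% biotinylated, detergent-solubilized Sf9 membrane reagent for 1 hour at 4 °C, enriched on streptavidin microbeads and sorted by FACS. The low and high (top ~1%) gates were set on anti-HA fluorescence for expression and streptavidin fluorescence for reagent binding.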

Sequence	polyreactivity (PSR sort gate)
QVQLVESGGGLVQAGGSLRLSCAASGRTFARYAKGWYRQAPGKERELVAVISRTGSTYYADSVKGRFTISRDNAKNTVYLQMNSLKPEDTAVYYCATVYYYLAYGWSYSDMDYWGQGTQVTVSS	high polyreactivity
QVQLVESGGGLVQAGGSLRLSCAASGRTFVRNAMAWYRQAPGKERELVAAITYGGGNTYYADSVKGRFTISRDNAKNTVYLQMNSLKPEDTAVYYCAKRRLYWSGQGWVRTYGYWGQGTQVTVSS	high polyreactivity
QVQLVESGGGLVQAGGSLRLSCAASGSIFLDNAMGWYRQAPGKERELVAAISKSGTRTYYADSVKGRFTISRDNAKTTVYLQMNSLKPEDTAVFYCNVVPKQAKRVELIGYYYWGQGTQVTVSS	high polyreactivity
QVQLVESGGGLVQAGGSLRLSCAASGSTYYNAMGWYIQAPGKERELVAAIRFRSGSTYYADSVKGRFTISRDNAKNTVYLQMNSMKPVDTAVYYCAADNKRSWRYAYNYWGQGTQVTVSS	high polyreactivity
QVQLVESGGGLVQAGGSLRLSCAASGRIFVYNTMGWYRQAPGKERELVAAIDWSGGSKYYADSVKGRFTISRDNAKNTVYLQMNSLKPEDTAVYYCNADSLIGMDYWGQGTQVTVSS	high polyreactivity
QVQLVESGGGLVQAGGSLRLSCAASGSTFGRYAMGWYRQAPGKERELVAAITSDTGHTNYADSVKGRFTISRDNAKNTVYLQMNSLKPEDTAVYYCAAANFWVLWGHVIGNYDSWGQGTQVTVSS	low polyreactivity
QVQLVESGGGLVQAGGSLRLSCAAYGRIFYRNAMGWYRQAPGKERELVAAISRSGGSTYYADSVKGRFTISRDNAKNTVYLQMNSLNPEDTAVYYCNAYRYLQSGPPRYREHGSWGQGTQVTVSS	low polyreactivity
QVQLVESGGGLVQAGGSLRLSCAASGRIFYDNTMGWYRQAPGKERELVAAISVSGGRTYYADSVKGRFTISRDNAKNTVYLQLNSLKPEDTAVYYCAADRGGEYWGQGTQVTVSS	high polyreactivity
QVQLVESGGGLVQAVGSLRLSCAASGSIFRKYVMGWYRQAPGKERELVAVISSGTGTYYADSVKGRFTISRDNAKNSVYLQMNSLKPEDTAVYYCAAKYFGKWYKYYYWGQGTQVTVSS	high polyreactivity
QVQLVESGGGLVQAGGSLRLSCAASGRTFAYTDMGWYRQAPGNERELVAAISWSDGTTYYADSVKGRFTISRDNAKNTVYLQMNSLKPEDTAVYYCAAESYPSEVASYVSEYDYWGQGTQVTVSA	low polyreactivity
QVQLVESGGGLVQAGGSLRLSCAASGYTLSVNAMGWYRQAPGKERELVATIDFGGGSTYYADSVKGRFTISRDNAKNTVYLKMNSLKPEDTAVYYCNTEWTSLSKSSLGGRYDHWGQGTQVTVSS	low polyreactivity
QVQLVESGGGLVQAGGSLRLSCAASGSTFFGYDMGWYRQAPGKERELVATINSGGSTYYADSVKGRFTISRDNAKNTVYLQMNSLKPEDTAVYYCAARPSYLYPYDRTGEYDYWGQGTQVTVSS	high polyreactivity
QVQLVESGGGLVQAGGSLRLSCAASGSTFRDNAMGWYRQAPGKERELVAAITVIDGTTYYADSVKGRFTISRDNAKNTVYLQMKSLKPEDTAVYYCAADTIWYEYYYWGQGTQVTVSS	low polyreactivity
QVQLVESGGGLVQAGGSLRLSCAASGSTFSWNTMGWYRQAPGIERELVAAINSGGSTYYADSVKGRFTISRDNAKNSVYLQMNSLKPEDTAVYYCAADWRGSYLYGYYYWGQGTQVTVSS	low polyreactivity
QVQLVESGGGLVQAGGSLRLSCAASGRIFFYYAMGWYRQAPGKERELVATISYSGGGTYYADSVKGRFTISRDNAKNTVYLQMNSLKPEDTAVYYCNARWGTPYYIQDFDYWGQGTQVTVSS	low polyreactivity
QVQLVESGGGLVQAGGSLRLSCAASGLTFYWNAMGWYRQAPGKERELVASISQSSGNTYYADSVKGRFSISRDNAKNTVYLQMNSLKPEDTAVYYCAARNRPSLNRYYYWGQGTQVNVSS	low polyreactivity
QVQLVESGGGLVQAGGSLRLSCAASGFIFRWYAMGWSRQAPGKERELVAAISSGGSTYYADSVKGRFTISRDNAKNTVYLQMNSLKPEDTAVYYCAVRRYSEGDYWGQGTQVTVSS	high polyreactivity
QVQLVESGGGLVQAGGSLRLSCASSGFTFFRNAMGWYRQAPGKERELVAAISGSGGRTYYADSVKGRFTISRDNAKNTVYLQMNSLKLEDTAVYYCAAVPVDPGYDYWGQVTQVTVSS	high polyreactivity
QVQLVESGGGLVQAGGSLRLSCAASGSTFFPYAMGWYRPAPGKERELVAAIRWSGGRTYYADSVKGRFTISRDNAKNTVYLQMNSLKPEDTAVYYCAADKYLDYDYWGQGTQVTVSS	high polyreactivity
QVQLVESGGGLVQAGGSLRLSCAASGRIFDPNAMGWYRQAPGKERELVARIRWWSDGSTYYADSVKGRFTISRDNAKNTVYLQMNSLKPEDTAVYYCATTANRVYGYAPWFGPRSEYWGQGTQVTVSS	high polyreactivity
QVQLVESGGGLVQAGGSLRLSCAASGITFTYYAMGWYRQAPGKERELVDAITDRGGRTYYSDSVKGRFTISRDNAKNTVYIQMNSLKPEDTAVYYCAAYVPQGYKLYYWGQGTQVTVSS	high polyreactivity
QVQLVESGGGLVQAGGSLRISCAASGGIIAINSMRCYRQAPGKERELVAAISWGDGITYYSDSVKRRFTISRDNAKYTVYLHMISLKPEDTAVYYCAADEDEYRGGDESWGQGTQVTVSA	low polyreactivity

Sequence	polyreactivity (PSR sort gate)
QVQLVESGGGLVQAGGSLRLSCAASGNIFGYYVMGWYRPAPGKERELVAGISSGDSTDYADSVKGRFTISRDNAKNTVYLQMNSLKPEDTAVYYCNADWNPTERWFYWYTPLGYDYWGQGTQVTVSS	low polyreactivity
QVHLVESVGGLVQAGGSLRLSSAASGIIFRSNAMGWYRQAPGKERELVAAISSRGSSTNYADSVKGRFTISRDNAKNTVYLQMNSLNPEDTAVYYCNARGSRVDQTESEYWGQGTQVTVSS	high polyreactivity
QVQLVESGGGLVQAGGSLRLSCAASGSIISGYAMGLDRQARGKERDLVAAISSGGRTKYADSVKGRFTISRDNAKNTVYLQMNSLKPEDTAVYYCNVSYLVYRWIFGWSLDYWGQGTQVTVSS	low polyreactivity
QFQLVESGGGLVQAGGSLRLSCAASGRTFGRYTMGWYRPAPGKEREFVARINWNGGGTYYEDSVKGRFTISRDNAKNTVYLQMNSLKPEDTEVYYCNARKRGARFILGYDYSGQGTQVTVSS	low polyreactivity
QVQLVESGGGLVQAGGSLRLSCAASGSIFWYNTMGWYRPAPGKERELVAAISKSGTSTYYADSVKGRFTISRDNAKNTVYLQMNSLKPEDTAVYYCAAALPGYGDYYYWGQGTQVTVSS	high polyreactivity
QVQLVESGGGLVQAGGSLRLSCAASGFTFAYYAMGWYRQAPGKERELVAAISSGGGSTYYADSVKGRFTISRDNAKNTVYLQMNSLKPEDTAVYYCATTIQISYDSIWYDYWGQGTQVTVSS	high polyreactivity
QVQLVESGGGLVQAGGSLRLSCAASGLIFVHYAMGWYRQAPGKERELVAAISAGGGSTYYADSVKGRFTISRDNAKNTVYLQMNSLKPEDTAVYYCNARVVNYFRPRTGAREYDYWGQGTQVTVSS	high polyreactivity
QVQLVESGGGLVQAGGSLRLSCAASGITFPGYARGWYRQAPGKASELVAAIDWSGDGTYYADSVKGRFTISRDNAKNTVYLQMNSLKPEDTAVYYCAKDNYPNHCTVRAVIYDYWGQGTQVTVSS	low polyreactivity
QVQLVESVGGLVQAGGSLRLSCAASGSIFAIYVMGSYRQAPGKERELVAAISYRSGSTYYADSVKGRFTISRDNAKNTVYLQMNSLKPEDTAVYYCAATSRYYTFGYWGQGTQVTVSS	low polyreactivity
QVQLVESGGGLVQAGGSLRLSCAASGRIYAYYPMGWYRQAPGKERELVAAISRGGGSTSYADSVKGRFTISRDNAKNTVYLQMNSLKPEDTAVYYCAADTRSYLVFTRYFRAYRRYDYWGQGTQVTVSS	low polyreactivity
QVQLVESGGGLVQAGGSLRLSCAASGRIFRRYAMGWYRQAHGKERELVAAITSGGRTYYADSVKGRFTISRDNAKNTVYLQMNSLKPEDTAVYYCAAKWTVGELDYWGQGTQVTVSS	high polyreactivity
QVQLVESGGGLVQAGGSLRLSCAASGRTFLLYAMGWYRPAPGKERELVAAIRSSTVSTYYADSVKGRFTISRDNAKNTVYLQMNSLKPEDTAVYYCAASRPKYGPSGVRYNYWGQGTQVTVSS	high polyreactivity
QVQLVESGGGLVQAGGSLRLSCAASGRIFRGNAMGWYRQAPGKERELVAAISNSGGRTYYADSVKGRFTISRDNAKNTVYVQMTSLKPEDTAVYYCNAVTYSRRYAYYYWGQGTQVTVSS	high polyreactivity
QVQLVESGGGLVQAGGSLRLSCAASGRTFSRYAMGWYRQAPGKERELVASIRSGGSTNYADSVKGRFTISRDNAKNTVYIQMNSLKPEDTAVYYCANVGRYWNPVYNSFYNFDYWGQGTQVTVSS	high polyreactivity
QVQLVESGGGLVQAGGSLRLSCASSGRTFVWNAMGWYRQAPGKERELVAAIDWSGGSTYYADSVKGRFTISRDNAKNTVYLQMNSLKPEDTAVYYCAKEYWYRALWYNYWGQGTQVTVSS	high polyreactivity
QVQLVESGGRLVQAGGSLRLSCAPSGIIFIWNTMGWYRQAPGKESEFVAAISRSGSGTSYADSVKGRFTISRDNAKNTVYLQMNSLKPEDTAVYYCAARLECPYDMYYWGQGTQVTVSS	low polyreactivity
QVQLVESGGGLVQAGGSLRLSCAASGSILHAYAMGWYRQAPGKEREFVAAIRRRGGSTYYADSVKGRFTISRDNAKNTVYLQMNSLKPEDTAVYYCAARFPLIGDSGGKSDYWGQGTQVTVSS	high polyreactivity
QVQLVESGGGLVQAGGSLRLSCAASGFIFYGYDMGWYRQAPGKETELVASISVRGGDTYYADSVKGRFTISRDNAKNTVYLQMNSLKPEDTAVYDCNAEGYPGRFSYGVVYGDVGYDYWGQGTQVTVSS	low polyreactivity
QVQLVESGGGLVQAGGSLRLSCAASGFTFYYNAMGWYRQAPGKERELVASISRGTSTNYADSVKGRFTISRDNAKNTVYLQMNSLKPEDTAVYYCAAKSYSDYDYWGQGTQVTVSS	low polyreactivity
QVQLVESWGGLVQAGGSLRLSCADSGRTFTVNAMGWYRQAPGKETEFVAAISGRSGRTSYADSVKGRFTISRDNAKNTVYLQMNCLKPEDTAVYYCNASGGYSTGSRYDYWGQGTQVTVSS	high polyreactivity
QVQLVESGGGLVQAGGSLRLSCAASGRTFGSNAMGWYRQAPGKERELVAAIRWGGGSTYYADSVKGRFTISRDNAKNTVYLQMNSLKPEDTAVYYCAAAYNWRKYDYWGQGTQVTVSS	high polyreactivity
